# Measurements as given in US20190367592A1 (AC IMMUNE, published 2019).
# Experiments:
# [1] = target: T1, recombinant human Tau monomer, 2N4R isoform (amino acids 2-441) (human, UniProt P10636-8 2-441); assay: SPR, captured IgG, Tau monomer analyte, 1:1 model; fit-quality column: Yes
# T1 construct: range 2-441; N-terminal His-tag removed with TEV protease; also called monomeric Tau
# Experimental: (§1) Briefly, IgGs in 1 mL culuture were captured using tip columns that were custom packed with 20 μL MabSelect SuRe resin (Glygen Corp & GE Healthcare). After washing with 1×PBS pH 7.4, IgGs were eluted into 160 μL of 50 mM phosphoric acid pH 3 and neutralized with 12 μL of 20×PBS pH 11. MabSelect SuRe tip columns were stripped in 0.1 M NaOH and regenerated with 1×PBS pH 7.4 for consecutive use of up to 15 times. Purified antibodies in 96-well format were normalized to 0.1 mg/ml using a Hamilton Star liquid handling robot. The “pre-stress” samples were kept at approximately 4° C. and the “post-stress” samples were incubated at 40° C. for two weeks in a PCR machine. Functional stability of the variants was compared by running surface plasmon resonance kinetics experiments with the “pre-stress” and “post-stress” antibody preps. The antibodies were assessed using a human antibody capture CM5 Series S chip generated using the GE Biacore human IgG capture kit and a Biacore T200 instrument. Antibodies diluted to 2 μg/ml were immobilized using a 15 second injection time and 10 μl/min flow rate. Binding to Tau monomer at 0 nM, 26.5 nM and 265 nM, at 25° C., using a flow rate of 40 μl/min, was monitored for a 180 second association phase followed by a 300 second dissociation phase. Samples were run in 10 mM HEPES pH7.4, 150 mM NaCl, 0.05% Tween 20 (HBSP) using a multi-cycle kinetics format. Data was analyzed using BIAevaluation software, fitting a 1:1 binding model. The resulting affinity (KD) values are shown in FIG. 8A-D. A Stability Index was also calculated, using the rationale that affinity-compromised antibodies (due for example to deamidation of key residues) are expected to contribute equally to the IgG capture level (“Ligand Level”) but to contribute less to the measured Tau binding, and that this would be reflected in the experimentally derived value for Rmax. To account for variations in the amount of each antibody captured, Rmax was normalized for the antibody capture level (as measured by “Ligand Level”, Response Units immobilized during antibody capture). Thus Normalized Rmax is calculated as the experimental Rmax (units=RU) divided by the “Ligand Level” (Evaluation output representing the RU captured during the hIgG capture step, units=RU), and Stability Index is calculated here as Normalized Rmax (post-stress) divided by Normalized Rmax (pre-stress).
# [2] = target: T1, recombinant human Tau monomer, 2N4R …; assay: SPR; Normalized Rmax post-stress (2 weeks 40 C) / pre-stress
# Experimental: as §1
# T1 sequence (P10636 other isoform, or with tags, fused parts or gaps limits assumed): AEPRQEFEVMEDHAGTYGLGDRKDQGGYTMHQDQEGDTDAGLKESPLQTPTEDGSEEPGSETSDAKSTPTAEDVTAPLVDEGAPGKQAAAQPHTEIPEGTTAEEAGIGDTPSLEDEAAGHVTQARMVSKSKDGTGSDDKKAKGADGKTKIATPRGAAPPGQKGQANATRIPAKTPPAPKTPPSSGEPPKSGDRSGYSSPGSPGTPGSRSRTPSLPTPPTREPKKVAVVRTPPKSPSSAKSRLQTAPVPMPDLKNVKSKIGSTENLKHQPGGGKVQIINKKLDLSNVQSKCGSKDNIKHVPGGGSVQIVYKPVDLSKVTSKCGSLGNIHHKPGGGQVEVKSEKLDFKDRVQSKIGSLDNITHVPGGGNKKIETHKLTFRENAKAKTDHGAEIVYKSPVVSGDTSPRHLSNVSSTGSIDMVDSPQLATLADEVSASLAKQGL
Binder,Kd [1],Stability Index [2]
"hu37D3.v28 (antibody, V domains shown) VH: EVQLVESGGGLVQPGGSLRLSCAASGLIFRSYGMSWVRQAPGKGLEWVATINSGGTYTYYPDSVKGRFTISRDNSKNTLYLQMNSLRAEDTAVYYCANSYSGAMDYWGQGTLVTVSS VL: DDVLTQTPLSLPVTPGQPASISCRSSQSIVHSNGNTYFEWYLQKPGQSPQLLIYKVSNRFSGVPDRFSGSGSGTDFTLKISRVEAEDVGVYYCFQGSLVPWTFGQGTKVEIK",0.9 nM,78%
"hu37D3-H9.v5.11 (antibody, V domains shown) VH: EVQLVESGGGLVQPGGSLRLSCAASGLIFRSYGMSWVRQAPGKGLEWVATINSGGTYTYYPDSVKGRFTISRDNSKNTLYLQMNSLRAEDTAVYYCANSYSGAMDYWGQGTLVTVSS VL: EDVLTQTPLSLPVTPGQPASISCRSSQSIVHSNGSTYFEWYLQKPGQSPQLLIYKVSNRFSGVPDRFSGSGSGTDFTLKISRVEAEDVGVYYCFQGSLVPWTFGQGTKVEIK",97.7 nM,71%
"hu37D3-H9.v30.1 (antibody, V domains shown) VH: EVQLVESGGGLVQPGGSLRLSCAASGLIFRSYGMSWVRQAPGKGLEWVATINSGGTYTYYPDSVKGRFTISRDNSKNTLYLQMNSLRAEDTAVYYCANSYSGAMDYWGQGTLVTVSS VL: DDVLTQTPLSLPVTPGQPASISCRSSQSIVHSGGNTYFEWYLQKPGQSPQLLIYKVSNRFSGVPDRFSGSGSGTDFTLKISRVEAEDVGVYYCFQGSLVPWTFGQGTKVEIK",23.5 nM,87%
"hu37D3-H9.v5.7 (antibody, V domains shown) VH: EVQLVESGGGLVQPGGSLRLSCAASGLIFRSYGMSWVRQAPGKGLEWVATINSGGTYTYYPDSVKGRFTISRDNSKNTLYLQMNSLRAEDTAVYYCANSYSGAMDYWGQGTLVTVSS VL: EDVLTQTPLSLPVTPGQPASISCRSSQSIVHSNGDTYFEWYLQKPGQSPQLLIYKVSNRFSGVPDRFSGSGSGTDFTLKISRVEAEDVGVYYCFQGSLVPWTFGQGTKVEIK",13 nM,67%
"hu37D3-H9.v30.3 (antibody, V domains shown) VH: EVQLVESGGGLVQPGGSLRLSCAASGLIFRSYGMSWVRQAPGKGLEWVATINSGGTYTYYPDSVKGRFTISRDNSKNTLYLQMNSLRAEDTAVYYCANSYSGAMDYWGQGTLVTVSS VL: DDVLTQTPLSLPVTPGQPASISCRSSQSIVHSVGNTYFEWYLQKPGQSPQLLIYKVSNRFSGVPDRFSGSGSGTDFTLKISRVEAEDVGVYYCFQGSLVPWTFGQGTKVEIK",38.1 nM,83%
"hu37D3-H9.v31.5 (antibody, V domains shown) VH: EVQLVESGGGLVQPGGSLRLSCAASGLIFRSYGMSWVRQAPGKGLEWVATINSGGTYTYYPDSVKGRFTISRDNSKNTLYLQMNSLRAEDTAVYYCANSYSGAMDYWGQGTLVTVSS VL: DDVLTQTPLSLPVTPGQPASISCRSSQSIVHSNAFTYFEWYLQKPGQSPQLLIYKVSNRFSGVPDRFSGSGSGTDFTLKISRVEAEDVGVYYCFQGSLVPWTFGQGTKVEIK",15.2 nM,85%
"hu37D3-H9.v30.4 (antibody, V domains shown) VH: EVQLVESGGGLVQPGGSLRLSCAASGLIFRSYGMSWVRQAPGKGLEWVATINSGGTYTYYPDSVKGRFTISRDNSKNTLYLQMNSLRAEDTAVYYCANSYSGAMDYWGQGTLVTVSS VL: DDVLTQTPLSLPVTPGQPASISCRSSQSIVHSLGNTYFEWYLQKPGQSPQLLIYKVSNRFSGVPDRFSGSGSGTDFTLKISRVEAEDVGVYYCFQGSLVPWTFGQGTKVEIK",22 nM,87%
"hu37D3-H9.v31.2 (antibody, V domains shown) VH: EVQLVESGGGLVQPGGSLRLSCAASGLIFRSYGMSWVRQAPGKGLEWVATINSGGTYTYYPDSVKGRFTISRDNSKNTLYLQMNSLRAEDTAVYYCANSYSGAMDYWGQGTLVTVSS VL: DDVLTQTPLSLPVTPGQPASISCRSSQSIVHSNAVTYFEWYLQKPGQSPQLLIYKVSNRFSGVPDRFSGSGSGTDFTLKISRVEAEDVGVYYCFQGSLVPWTFGQGTKVEIK",10.6 nM,90%
"hu37D3-H9.v31.8 (antibody, V domains shown) VH: EVQLVESGGGLVQPGGSLRLSCAASGLIFRSYGMSWVRQAPGKGLEWVATINSGGTYTYYPDSVKGRFTISRDNSKNTLYLQMNSLRAEDTAVYYCANSYSGAMDYWGQGTLVTVSS VL: DDVLTQTPLSLPVTPGQPASISCRSSQSIVHSNANVYFEWYLQKPGQSPQLLIYKVSNRFSGVPDRFSGSGSGTDFTLKISRVEAEDVGVYYCFQGSLVPWTFGQGTKVEIK",10.9 nM,78%
"hu37D3-H9.v5.2 (antibody, V domains shown) VH: EVQLVESGGGLVQPGGSLRLSCAASGLIFRSYGMSWVRQAPGKGLEWVATINSGGTYTYYPDSVKGRFTISRDNSKNTLYLQMNSLRAEDTAVYYCANSYSGAMDYWGQGTLVTVSS VL: EDVLTQTPLSLPVTPGQPASISCRSSQSIVHSSGNTYFEWYLQKPGQSPQLLIYKVSNRFSGVPDRFSGSGSGTDFTLKISRVEAEDVGVYYCFQGSLVPWTFGQGTKVEIK",10.9 nM,97%
"hu37D3-H9.v31.6 (antibody, V domains shown) VH: EVQLVESGGGLVQPGGSLRLSCAASGLIFRSYGMSWVRQAPGKGLEWVATINSGGTYTYYPDSVKGRFTISRDNSKNTLYLQMNSLRAEDTAVYYCANSYSGAMDYWGQGTLVTVSS VL: DDVLTQTPLSLPVTPGQPASISCRSSQSIVHSNAYTYFEWYLQKPGQSPQLLIYKVSNRFSGVPDRFSGSGSGTDFTLKISRVEAEDVGVYYCFQGSLVPWTFGQGTKVEIK",15.5 nM,90%

# Continued, values first:
Kd [1],Stability Index [2],Binder
5.3 nM,95%,"hu37D3-H9.v5.9 (antibody, V domains shown) VH: EVQLVESGGGLVQPGGSLRLSCAASGLIFRSYGMSWVRQAPGKGLEWVATINSGGTYTYYPDSVKGRFTISRDNSKNTLYLQMNSLRAEDTAVYYCANSYSGAMDYWGQGTLVTVSS VL: EDVLTQTPLSLPVTPGQPASISCRSSQSIVHSNGETYFEWYLQKPGQSPQLLIYKVSNRFSGVPDRFSGSGSGTDFTLKISRVEAEDVGVYYCFQGSLVPWTFGQGTKVEIK"
9.8 nM,93%,"hu37D3-H9.v31.3 (antibody, V domains shown) VH: EVQLVESGGGLVQPGGSLRLSCAASGLIFRSYGMSWVRQAPGKGLEWVATINSGGTYTYYPDSVKGRFTISRDNSKNTLYLQMNSLRAEDTAVYYCANSYSGAMDYWGQGTLVTVSS VL: DDVLTQTPLSLPVTPGQPASISCRSSQSIVHSNAITYFEWYLQKPGQSPQLLIYKVSNRFSGVPDRFSGSGSGTDFTLKISRVEAEDVGVYYCFQGSLVPWTFGQGTKVEIK"
6.9 nM,83%,"hu37D3-H9.v31.7 (antibody, V domains shown) VH: EVQLVESGGGLVQPGGSLRLSCAASGLIFRSYGMSWVRQAPGKGLEWVATINSGGTYTYYPDSVKGRFTISRDNSKNTLYLQMNSLRAEDTAVYYCANSYSGAMDYWGQGTLVTVSS VL: DDVLTQTPLSLPVTPGQPASISCRSSQSIVHSNARTYFEWYLQKPGQSPQLLIYKVSNRFSGVPDRFSGSGSGTDFTLKISRVEAEDVGVYYCFQGSLVPWTFGQGTKVEIK"
2.2 nM,90%,"hu37D3-H9.v5.8 (antibody, V domains shown) VH: EVQLVESGGGLVQPGGSLRLSCAASGLIFRSYGMSWVRQAPGKGLEWVATINSGGTYTYYPDSVKGRFTISRDNSKNTLYLQMNSLRAEDTAVYYCANSYSGAMDYWGQGTLVTVSS VL: EDVLTQTPLSLPVTPGQPASISCRSSQSIVHSNGQTYFEWYLQKPGQSPQLLIYKVSNRFSGVPDRFSGSGSGTDFTLKISRVEAEDVGVYYCFQGSLVPWTFGQGTKVEIK"
4.7 nM,78%,"hu37D3-H9.v5.10 (antibody, V domains shown) VH: EVQLVESGGGLVQPGGSLRLSCAASGLIFRSYGMSWVRQAPGKGLEWVATINSGGTYTYYPDSVKGRFTISRDNSKNTLYLQMNSLRAEDTAVYYCANSYSGAMDYWGQGTLVTVSS VL: EDVLTQTPLSLPVTPGQPASISCRSSQSIVHSNGATYFEWYLQKPGQSPQLLIYKVSNRFSGVPDRFSGSGSGTDFTLKISRVEAEDVGVYYCFQGSLVPWTFGQGTKVEIK"
4.2 nM,96%,"hu37D3-H9.v30.2 (antibody, V domains shown) VH: EVQLVESGGGLVQPGGSLRLSCAASGLIFRSYGMSWVRQAPGKGLEWVATINSGGTYTYYPDSVKGRFTISRDNSKNTLYLQMNSLRAEDTAVYYCANSYSGAMDYWGQGTLVTVSS VL: DDVLTQTPLSLPVTPGQPASISCRSSQSIVHSTGNTYFEWYLQKPGQSPQLLIYKVSNRFSGVPDRFSGSGSGTDFTLKISRVEAEDVGVYYCFQGSLVPWTFGQGTKVEIK"
